Laboratory results as given in US20090023672, “AGE-2 APTAMER” (KURUME UNIVERSITY, published 2009).

B1: AGE-2 aptamer 2 (ssDNA)
DNA: ACCACTGCACGACCCCCACCAGTCCCACTCGCAGCGTCCATGGCCCCCACGCCCCA
B2: AGE-2 aptamer 11 (ssDNA)
DNA: CCCAAGCACAATAGCCACACCCACGACCCACCCTCATATTCCGACCACGCTCCC
B3: AGE-2 aptamer 13 (ssDNA)
DNA: CCTCAACACACCTCTAACCAACCCTCAGCCCAGCACAACACCCCCCAAACCGACAC
B4: AGE-2 aptamer 14 (ssDNA)
DNA: CTGAATACCAACGTACCCCCTCCCAAGTCCCCCTACCCACGCTAAACTCAACCTCA
B5: AGE-2 aptamer 15 (ssDNA)
DNA: TACAGCCCCCCAACCCACCACCGCCGTAGATAACCACCCACCAACGATATCCCACT
B6: AGE-2 aptamer 3 (ssDNA)
DNA: CGCCCCCACACCACCGCCACGACCCCACAATCCCCCGAGGTCCCCCGCGTCCACAC
B7: AGE-2 aptamer 4 (ssDNA)
DNA: CCAGCCTCGATACCATACCCACCAACCCAACCAGACTCCACACACCCACGCGTCTC
B8: AGE-2 aptamer 5 (ssDNA)
DNA: CAAGCGCTCCATCCACCGACATACCTACCAAACACTCTCCTTGCCCATAAAACCAC
B9: AGE-2 aptamer 6 (ssDNA)
DNA: CCCGCCATTCCCCTACATAACACCTACCCATCTCCCTTCCCAGTTAATCACCGC
B10: AGE-2 aptamer 7 (ssDNA)
DNA: CCACACTGCACTAAACCAGCGTCCCGGACCATCACAACCTCTGCCCACTAGCCCCT
B11: AGE-2 aptamer 8 (ssDNA)
DNA: AACTAGCCCGAGCCACAATCCCATAACAAGCGTGACCACACTATCCTGTCTTCCC
B12: AGE-2 aptamer 9 (ssDNA)
DNA: TAACTCACTCCATACTCACTTGCTGATTCGCCAACAACACACCCTTAAACAGTCCC
B13: AGE-2 aptamer 10 (ssDNA)
DNA: ATAACCCCGACGTACACGCCAACTATGCCCACAACCCGCCATAACCCACCACCTTC

Target: AGE-2 (glyceraldehyde-derived advanced glycation end product of human serum albumin) (Homo sapiens, UniProt P02768 P02768:25-609, HSA glycated with D-glyceraldehyde at 37 C for 7 days, dialysed against PBS)
Sequence (P02768 25-609, stated change not applied, one chain of several): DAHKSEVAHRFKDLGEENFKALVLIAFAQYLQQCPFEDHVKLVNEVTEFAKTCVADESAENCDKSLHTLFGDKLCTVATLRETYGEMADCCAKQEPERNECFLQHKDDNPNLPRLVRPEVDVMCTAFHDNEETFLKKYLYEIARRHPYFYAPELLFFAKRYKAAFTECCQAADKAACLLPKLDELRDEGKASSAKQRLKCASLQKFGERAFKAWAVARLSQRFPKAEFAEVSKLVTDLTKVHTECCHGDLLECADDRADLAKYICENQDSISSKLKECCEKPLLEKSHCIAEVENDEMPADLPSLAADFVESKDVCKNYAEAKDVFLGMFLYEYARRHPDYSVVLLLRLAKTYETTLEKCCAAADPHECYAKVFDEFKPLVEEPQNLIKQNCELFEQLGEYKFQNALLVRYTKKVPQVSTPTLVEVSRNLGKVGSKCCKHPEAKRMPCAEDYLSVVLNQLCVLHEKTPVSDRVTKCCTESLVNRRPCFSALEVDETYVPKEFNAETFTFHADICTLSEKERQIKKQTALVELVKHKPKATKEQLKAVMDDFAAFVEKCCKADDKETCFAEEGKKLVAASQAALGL
Test: AGE-2 fluorescence attenuation, 100 ug/mL AGE-2, 25 nM aptamer
Details: tags: HSA from Sigma; immobilised on SulfoLink beads for SELEX
Method: First, for measuring fluorescence properties of AGE-2, wavelengths of AGE-2 were determined for excitation and […] using a spectrofluorometer (FP-777: JASCO Corporation). […] Subsequently, the fluorescence intensity was measured with 25 to 100 μg/mL of AGE-2 at the excitation wavelength of 380 nm, and a calibration curve was prepared (FIG. 3A).
Then, to each aptamer (SEQ ID NOs: 1 to 15), 100 μg/mL of the AGE-2 was added at a final concentration of 25 to 100 nM, and the fluorescence intensity was measured (see FIGS. 3B and C). Based on attenuation in the fluorescence intensity of AGE-2 when the aptamer was added at 25 nM, the weight (ng) of the bound AGE-2 was calculated per mole (nmol) of the aptamer.

Row | Binder | binding signal
1 | B1 | 175 ng AGE-2 bound per nmol aptamer
2 | B2 | 137 ng AGE-2 bound per nmol aptamer
3 | B3 | 175 ng AGE-2 bound per nmol aptamer
4 | B4 | 158 ng AGE-2 bound per nmol aptamer
5 | B5 | 271 ng AGE-2 bound per nmol aptamer
6 | B6 | 260 ng AGE-2 bound per nmol aptamer
7 | B7 | 210 ng AGE-2 bound per nmol aptamer
8 | B8 | 143 ng AGE-2 bound per nmol aptamer
9 | B9 | 202 ng AGE-2 bound per nmol aptamer
10 | B10 | 146 ng AGE-2 bound per nmol aptamer
11 | B11 | 175 ng AGE-2 bound per nmol aptamer
12 | B12 | 117 ng AGE-2 bound per nmol aptamer
13 | B13 | 134 ng AGE-2 bound per nmol aptamer
